Data on two molecules can be found in article PMC2859985 (Virus research, 2010).

For experiment [1], the target named is importin alpha 5, His-tagged (human, UniProt P52294 1-538). The experiment is described as follows: pull-down.
For experiment [2], the target named is T1, importin alpha 3, His-tagged (human, UniProt O00629 1-521).
T1 sequence (looked up): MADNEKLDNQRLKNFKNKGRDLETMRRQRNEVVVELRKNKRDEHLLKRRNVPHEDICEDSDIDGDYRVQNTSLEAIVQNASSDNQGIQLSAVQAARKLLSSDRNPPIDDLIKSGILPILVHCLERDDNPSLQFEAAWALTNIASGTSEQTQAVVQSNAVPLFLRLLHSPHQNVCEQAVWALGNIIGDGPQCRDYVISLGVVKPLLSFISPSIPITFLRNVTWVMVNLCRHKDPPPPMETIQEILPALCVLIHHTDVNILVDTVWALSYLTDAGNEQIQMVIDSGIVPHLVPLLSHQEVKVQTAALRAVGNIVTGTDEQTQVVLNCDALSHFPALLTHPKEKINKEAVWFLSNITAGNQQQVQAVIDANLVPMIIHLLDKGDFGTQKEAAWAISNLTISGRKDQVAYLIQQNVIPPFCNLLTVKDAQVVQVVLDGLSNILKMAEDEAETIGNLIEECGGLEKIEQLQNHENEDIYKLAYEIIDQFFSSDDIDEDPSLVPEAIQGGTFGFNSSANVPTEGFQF
The experiment is described as follows: pull-down.

importin alpha 5, His-tagged, sequence (P52294 whole entry): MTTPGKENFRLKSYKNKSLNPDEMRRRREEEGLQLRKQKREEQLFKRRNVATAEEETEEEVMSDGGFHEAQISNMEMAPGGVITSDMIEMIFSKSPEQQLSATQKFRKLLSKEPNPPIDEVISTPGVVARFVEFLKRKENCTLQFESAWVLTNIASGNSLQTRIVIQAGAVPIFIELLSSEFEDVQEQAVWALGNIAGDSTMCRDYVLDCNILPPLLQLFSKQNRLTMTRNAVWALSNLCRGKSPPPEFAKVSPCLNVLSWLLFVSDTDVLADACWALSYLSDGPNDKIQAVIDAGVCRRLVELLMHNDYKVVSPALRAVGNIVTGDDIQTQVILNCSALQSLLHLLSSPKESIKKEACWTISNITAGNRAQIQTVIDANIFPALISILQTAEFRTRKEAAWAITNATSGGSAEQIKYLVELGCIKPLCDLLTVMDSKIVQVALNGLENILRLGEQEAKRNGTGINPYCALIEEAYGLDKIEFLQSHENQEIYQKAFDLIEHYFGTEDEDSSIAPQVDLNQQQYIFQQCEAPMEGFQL

B1: GST-HPV11 E2 (natural protein)
chain: MEAIAKRLDACQDQLLELYEENSIDIHKHIMHWKCIRLESVLLHKAKQMGLSHIGLQVVPPLTVSETKGHNAIEMQMHLESLAKTQYGVEPWTLQDTSYEMWLTPPKRCFKKQGNTVEVKFDGCEDNVMEYVVWTHIYLQDNDSWVKVTSSVDAKGIYYTCGQFKTYYVNFNKEAQKYGSTNHWEVCYGSTVICSPASVSSTVREVSIAEPTTYTPAQTTAPTVSACTTEDGVSAPPRKRARGPSTNNTLCVANIRSVDSTINNIVTDNYNKHQRRNNCHSAATPIVQLQGDSNCLKCFRYRLNDKYKHLFELASSTWHWASPEAPHKNAIVTLTYSSEEQRQQFLNSVKIPPTIRHKVGFMSLHLL
As for B1, the binding result in experiment [1] and in experiment [2] was “binds” throughout.

B2: GST-HPV16 E2 (natural protein)
chain: METLCQRLNVCQDKILTHYENDSTDLRDHIDYWKHMRLECAIYYKAREMGFKHINHQVVPTLAVSKNKALQAIELQLTLETIYNSQYSNEKWTLQDVSLEVYLTAPTGCIKKHGYTVEVQFDGDICNTMHYTNWTHIYICEEASVTVVEGQVDYYGLYYVHEGIRTYFVQFKDDAEKYSKNKVWEVHAGGQVILCPTSVFSSNEVSSPEIIRQHLANHPAATHTKAVALGTEETQTTIQRPRSEPDTGNPCHTTKLLHRDSVDSAPILTAFNSSHKGRINCNSNTTPIVHLKGDANTLKCLRYRFKKHCTLYTAVSSTWHWTGHNVKHKSAIVTLTYDSEWQRDQFLSQVKIPKTITVSTGFMSI
As to B2, the binding result in experiment [1] was “binds”.
